# B1: HMFG-1 (antibody, V domains shown)
# VH: QVQLVQSGAEVKKPGASVKVSCKASGYTFSAYWIEWVRQAPGKGLEWVGEILPGSNNSRYNEKFKGRVTVTRDTSTNTAYMELSSLRSEDTAVYYCARSYDFAWFAYWGQGTLVTVSS
# VL: DIQMTQSPSSLSASVGDRVTITCKSSQSLLYSSNQKIYLAWYQQKPGKAPKLLIYWASTRESGVPSRFSGSGSGTDFTFTISSLQPEDIATYYCQQYYRYPRTFGQGTKVEIKR
# Molecular target: T1, […]n, n = 5 (100-mer), non-glycosylated (human)
# T1 construct: non-glycosylated MUC1 peptide with five tandem repeats in series
# Experiment: peptide ELISA, OD 492 nm; limit of the class, member by Table 2; reference: 20-mer
binder,measurement,value
B1,ratio of the optical density 100-mer/20-mer,> 3

# From patent publication US20150010495A1 (GLYCOTOPE, published 2015)
